Assay results: ChEMBL document CHEMBL3525919, “Potent inhibition of human sulfotransferase 1A1 by 17α-ethinylestradiol: role of 3'-phosphoadenosine 5'-phosphosulfate binding and structural rearrangements in regulating inhibition and activity” (Drug Metab Dispos, 2012)

Legend:
[1] = substrate: C[C@]12CC[C@@H]3c4ccc(O)cc4CC[C@H]3[C@@H]1CC[C@@H]2O; experiment: Activity of human SULT1A1 expressed in Escherichia coli at 20 uM by Michaelis-Menten equation analysis in presence of PAPS; type: ADME
[2] = substrate: C#C[C@]1(O)CC[C@H]2[C@@H]3CCc4cc(O)ccc4[C@H]3CC[C@@]21C; experiment: Activity of human SULT1A1 expressed in Escherichia coli at 6 uM by Michaelis-Menten equation analysis in presence of PAPS; type: ADME
[3] = substrate: C[C@]12CC[C@@H]3c4ccc(O)cc4CC[C@H]3[C@@H]1CC[C@@H]2O; experiment: Activity of SULT1E1 (unknown origin); type: ADME, Homo sapiens

B1: Sulfotransferase 1A1 (Homo sapiens) (protein)
chain: MELIQDTSRPPLEYVKGVPLIKYFAEALGPLQSFQARPDDLLISTYPKSGTTWVSQILDMIYQGGDLEKCHRAPIFMRVPFLEFKAPGIPSGMETLKDTPAPRLLKTHLPLALLPQTLLDQKVKVVYVARNAKDVAVSYYHFYHMAKVHPEPGTWDSFLEKFMVGEVSYGSWYQHVQEWWELSRTHPVLYLFYEDMKENPKREIQKILEFVGRSLPEETVDFVVQHTSFKEMKKNPMTNYTTVPQEFMDHSISPFMRKGMAGDWKTTFTVAQNERFDADYAEKMAGCSLSFRSEL
Km [1]: 0.36 µM | Km [2]: 0.45 µM

B2: Sulfotransferase 1E1 (Homo sapiens) (protein)
chain: MNSELDYYEKFEEVHGILMYKDFVKYWDNVEAFQARPDDLVIATYPKSGTTWVSEIVYMIYKEGDVEKCKEDVIFNRIPFLECRKENLMNGVKQLDEMNSPRIVKTHLPPELLPASFWEKDCKIIYLCRNAKDVAVSFYYFFLMVAGHPNPGSFPEFVEKFMQGQVPYGSWYKHVKSWWEKGKSPRVLFLFYEDLKEDIRKEVIKLIHFLERKPSEELVDRIIHHTSFQEMKNNPSTNYTTLPDEIMNQKLSPFMRKGITGDWKNHFTVALNEKFDKHYEQQMKESTLKFRTEI
Km [3]: 0.004 µM
